In paper PMC12381745:

How the values were obtained:
LHD101B-αLux [1] = test: split reporter (BiFC, NanoBiT); time-course luminescence; protein-linker-RNA conjugate of A and protein B preincubated until a baseline signal, then RNase A added manually after 30 min; S/B = maximum signal after RNA cleavage divided by the baseline signal
LHD101B-αLux [2] = test: split reporter (BiFC, NanoBiT); protein-linker conjugates of protein A with protein B in solution; luminescence relative to the naked cysteine mutant (Figure 2c)
LHD101B-αLux [3] = test: split reporter (BiFC, NanoBiT); 96-well plate; 2.5 nM BC10 and 2.5 nM B protein with preincubated 100 nM Cas13 and 50 nM crRNA1 in 1x HBS-EP+ buffer, 50 μM LuxSit Pro Substrate; target RNA added after 5 min of baseline; 1 h at room temperature

Binder	S/B change (maximum signal after RNA cleavage by RNase A divided by the baseline signal with intact RNA) (LHD101B-αLux [1])	also measured
LHD101A-βit I61C-L1-RNA protein-linker-RNA conjugate (designed binder, here or on the partner: cysteine 61 joined by thiol-maleimide Michael addition to linker L1, whose DBCO is joined by SPAAC to the azide-functionalised 17mer RNA conjRNA1) SELAVVAAIISAVARMGVKMELHPSGNEVKVVIKGLHIKQQRQLYRDVREAAKKAGVEVECEVEGDTVTIVVRG	> 1.3	–
LHD101A-βit G65C-L2-RNA protein-linker-RNA conjugate (designed binder, here or on the partner: cysteine 65 joined by thiol-maleimide Michael addition to linker L2, whose DBCO is joined by SPAAC to the azide-functionalised 17mer RNA conjRNA1) SELAVVAAIISAVARMGVKMELHPSGNEVKVVIKGLHIKQQRQLYRDVREAAKKAGVEVEIEVECDTVTIVVRG	> 1.3	–
LHD101A-βit E60C-L2 protein-linker conjugate (designed binder, here or on the partner: cysteine 60 joined by thiol-maleimide Michael addition to linker L2 (maleimide-DBCO, longer, more flexible)) SELAVVAAIISAVARMGVKMELHPSGNEVKVVIKGLHIKQQRQLYRDVREAAKKAGVEVCIEVEGDTVTIVVRG	–	luminescence signal relative to the naked cysteine mutant (LHD101B-αLux [2]): > 20%
LHD101A-βit G65C-L1-RNA protein-linker-RNA conjugate (designed binder, here or on the partner: cysteine 65 joined by thiol-maleimide Michael addition to linker L1, whose DBCO is joined by SPAAC to the azide-functionalised 17mer RNA conjRNA1) SELAVVAAIISAVARMGVKMELHPSGNEVKVVIKGLHIKQQRQLYRDVREAAKKAGVEVEIEVECDTVTIVVRG	> 1.3	–
LHD101A-βit E60C-L1 protein-linker conjugate (designed binder, here or on the partner: cysteine 60 joined by thiol-maleimide Michael addition to linker L1 (maleimide-DBCO, shorter, more rigid)) SELAVVAAIISAVARMGVKMELHPSGNEVKVVIKGLHIKQQRQLYRDVREAAKKAGVEVCIEVEGDTVTIVVRG	–	luminescence signal relative to the naked cysteine mutant (LHD101B-αLux [2]): > 20%
LHD101A-βit I61C-L2-RNA protein-linker-RNA conjugate (designed binder, here or on the partner: cysteine 61 joined by thiol-maleimide Michael addition to linker L2, whose DBCO is joined by SPAAC to the azide-functionalised 17mer RNA conjRNA1) SELAVVAAIISAVARMGVKMELHPSGNEVKVVIKGLHIKQQRQLYRDVREAAKKAGVEVECEVEGDTVTIVVRG	> 1.3	–
LHD101A-βit E62C-L2-RNA protein-linker-RNA conjugate (designed binder, here or on the partner: cysteine 62 joined by thiol-maleimide Michael addition to linker L2, whose DBCO is joined by SPAAC to the azide-functionalised 17mer RNA conjRNA1) SELAVVAAIISAVARMGVKMELHPSGNEVKVVIKGLHIKQQRQLYRDVREAAKKAGVEVEICVEGDTVTIVVRG	1.89	–
LHD101A-βit E62C-L1-RNA protein-linker-RNA conjugate (designed binder, here or on the partner: cysteine 62 joined by thiol-maleimide Michael addition to linker L1, whose DBCO is joined by SPAAC to the azide-functionalised 17mer RNA conjRNA1) SELAVVAAIISAVARMGVKMELHPSGNEVKVVIKGLHIKQQRQLYRDVREAAKKAGVEVEICVEGDTVTIVVRG	2	maximum luminescence signal after RNA cleavage by RNase A (LHD101B-αLux [1]): 100000 RLU; maximum S/B ratio (signal after RNA cleavage by activated Cas13 divided by the baseline signal with intact RNA) (LHD101B-αLux [3]): 1.6
